Results on four proteins are retold here after patent publication US20100003237.

In series [1] the target is FITC-labeled collagen (Elastin #CF308).
Series [2] has as its target insoluble collagen conjugated to fluorescein isothiocyanate (FITC) (Anaspec #85111 or Sigma Collagen #C4361).
The target in series [3] is FITC-labeled collagen (Sigma #C4361).
Series [4] addresses Soluble rat tail collagen Type I, P02454.

Chain of Soluble rat tail collagen Type I, P02454 (P02454 152-1207, chain 1 of 2): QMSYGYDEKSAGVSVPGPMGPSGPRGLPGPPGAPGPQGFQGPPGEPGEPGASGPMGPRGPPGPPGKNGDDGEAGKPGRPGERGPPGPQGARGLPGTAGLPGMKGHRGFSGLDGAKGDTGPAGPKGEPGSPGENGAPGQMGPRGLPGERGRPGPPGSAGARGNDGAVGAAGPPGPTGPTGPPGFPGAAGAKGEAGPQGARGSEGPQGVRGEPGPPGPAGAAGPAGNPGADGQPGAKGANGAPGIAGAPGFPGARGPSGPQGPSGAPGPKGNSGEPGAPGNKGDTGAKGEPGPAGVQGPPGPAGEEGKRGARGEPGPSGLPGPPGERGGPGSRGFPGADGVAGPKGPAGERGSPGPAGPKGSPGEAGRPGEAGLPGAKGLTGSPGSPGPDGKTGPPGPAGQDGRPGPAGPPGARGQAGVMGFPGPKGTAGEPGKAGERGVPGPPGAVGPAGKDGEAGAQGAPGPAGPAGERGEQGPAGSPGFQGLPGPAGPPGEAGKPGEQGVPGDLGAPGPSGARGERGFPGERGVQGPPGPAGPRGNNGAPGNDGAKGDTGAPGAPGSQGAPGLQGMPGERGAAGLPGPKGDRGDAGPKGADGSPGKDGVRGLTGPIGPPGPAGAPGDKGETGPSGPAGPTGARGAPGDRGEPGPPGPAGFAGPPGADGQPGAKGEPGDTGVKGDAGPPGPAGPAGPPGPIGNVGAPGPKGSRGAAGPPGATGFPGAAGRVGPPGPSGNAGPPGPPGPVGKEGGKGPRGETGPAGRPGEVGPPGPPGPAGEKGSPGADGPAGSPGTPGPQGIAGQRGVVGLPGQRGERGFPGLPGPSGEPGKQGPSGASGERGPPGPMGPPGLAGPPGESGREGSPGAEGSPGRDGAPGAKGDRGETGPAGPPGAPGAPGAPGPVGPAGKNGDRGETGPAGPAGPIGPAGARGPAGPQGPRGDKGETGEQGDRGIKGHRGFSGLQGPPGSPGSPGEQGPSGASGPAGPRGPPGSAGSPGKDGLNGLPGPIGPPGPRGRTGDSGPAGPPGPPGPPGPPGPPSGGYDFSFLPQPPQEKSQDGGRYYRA
Chain of Soluble rat tail collagen Type I, P02454 (chain, as listed by the source, chain 2 of 2): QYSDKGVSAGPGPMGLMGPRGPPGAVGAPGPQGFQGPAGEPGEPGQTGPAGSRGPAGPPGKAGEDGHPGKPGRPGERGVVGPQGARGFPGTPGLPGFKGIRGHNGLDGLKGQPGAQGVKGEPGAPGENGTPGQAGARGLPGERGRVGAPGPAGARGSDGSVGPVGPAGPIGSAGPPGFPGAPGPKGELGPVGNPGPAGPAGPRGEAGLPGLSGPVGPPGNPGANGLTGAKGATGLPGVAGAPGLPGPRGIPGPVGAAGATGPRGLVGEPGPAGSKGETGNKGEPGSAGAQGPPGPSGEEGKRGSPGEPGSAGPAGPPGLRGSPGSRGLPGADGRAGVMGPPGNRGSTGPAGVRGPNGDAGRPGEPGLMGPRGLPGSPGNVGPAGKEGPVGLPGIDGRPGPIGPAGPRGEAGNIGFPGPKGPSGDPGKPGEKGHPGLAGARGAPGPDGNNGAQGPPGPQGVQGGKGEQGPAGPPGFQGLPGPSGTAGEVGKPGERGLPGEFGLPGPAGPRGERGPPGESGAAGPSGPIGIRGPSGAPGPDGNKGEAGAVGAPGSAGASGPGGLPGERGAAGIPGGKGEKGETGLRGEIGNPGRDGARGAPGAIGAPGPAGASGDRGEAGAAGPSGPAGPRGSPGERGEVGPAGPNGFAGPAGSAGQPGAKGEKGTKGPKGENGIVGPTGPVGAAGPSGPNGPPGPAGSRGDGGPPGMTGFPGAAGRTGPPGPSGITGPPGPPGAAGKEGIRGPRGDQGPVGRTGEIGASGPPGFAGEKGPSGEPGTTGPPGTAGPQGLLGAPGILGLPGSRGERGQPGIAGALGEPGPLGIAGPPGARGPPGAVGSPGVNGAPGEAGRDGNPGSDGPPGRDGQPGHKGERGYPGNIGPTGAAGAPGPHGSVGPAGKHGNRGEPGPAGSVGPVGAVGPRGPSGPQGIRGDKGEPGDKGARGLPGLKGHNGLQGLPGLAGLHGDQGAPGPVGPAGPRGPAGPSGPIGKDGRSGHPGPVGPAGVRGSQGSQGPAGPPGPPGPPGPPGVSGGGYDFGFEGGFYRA

B1: Wild type hMMP-1 clone BAP006-10 (pET303CTHis, expressed in BL21 (DE3) E. coli), activated with AMPA (protein)
chain: FVLTEGNPRWEQTHLTYRIENYTPDLPRADVDHAIEKAFQLWSNVTPLTFTKVSEGQADIMISFVRGDHRDNSPFDGPGGNLAHAFQPGPGIGGDAHFDEDERWTNNFREYNLHRVAAHELGHSLGLSHSTDIGALMYPSYTFSGDVQLAQDDIDGIQAIYGRSQNPVQPIGPQTPKACDSKLTFDAITTIRGEVMFFKDRFYMRTNPFYPEVELNFISVFWPQLPNGLEAAYEFADRDEVRFFKGNKYWAVQGQNVLHGYPKDIYSSFGFPRTVKHIDAALSEENTGKTYFFVANKYWRYDEYKRSMDPGYPKMIAHDFPGIGHKVDAVFMKDGFFYFFHGTRQYKFDPKTKRILTLQKANSWFNCRKNHHHHH
In the case of B1, in series [1], the RFU, 37° C. (fluorescence of supernatant after 144 hours, replicate 1) is 2670 RFU; the RFU, 37° C. (fluorescence of supernatant after 144 hours, replicate 2) was found to be 3060 RFU; the RFU, Avg 37° C. (fluorescence of supernatant after 144 hours) amounted to 2860 RFU. Also, in series [2], the “cleavage of insoluble collagen (7.5% SDS polyacrylamide gel, Coomassie Blue)” value is “after 24 hours incubation at 25 °C or 37° C., hMMP-1 partially cleaved the α1(I) and α2(I) collagen chains into ¾ and ¼ length digestion products for all hMMP-1 proteins tested”. In series [3], this protein displayed an RFU, 37° C. (fluorescence of supernatant after 144 hours, replicate 1) of 1290 RFU; an RFU, 37° C. (fluorescence of supernatant after 144 hours, replicate 2) of 1340 RFU; an RFU, Avg 37° C. (fluorescence of supernatant after 144 hours) of 1310 RFU.

B2: Wild type hMMP-1 clone BAP006-2 (expressed in CHO-S cells), activated with AMPA (protein)
chain: FVLTEGNPRWEQTHLTYRIENYTPDLPRADVDHAIEKAFQLWSNVTPLTFTKVSEGQADIMISFVRGDHRDNSPFDGPGGNLAHAFQPGPGIGGDAHFDEDERWTNNFREYNLHRVAAHELGHSLGLSHSTDIGALMYPSYTFSGDVQLAQDDIDGIQAIYGRSQNPVQPIGPQTPKACDSKLTFDAITTIRGEVMFFKDRFYMRTNPFYPEVELNFISVFWPQLPNGLEAAYEFADRDEVRFFKGNKYWAVQGQNVLHGYPKDIYSSFGFPRTVKHIDAALSEENTGKTYFFVANKYWRYDEYKRSMDPGYPKMIAHDFPGIGHKVDAVFMKDGFFYFFHGTRQYKFDPKTKRILTLQKANSWFNCRKN
In series [1], B2 registered an RFU, 37° C. (fluorescence of supernatant after 144 hours, replicate 1) of 1730 RFU; an RFU, 37° C. (fluorescence of supernatant after 144 hours, replicate 2) of 2300 RFU; an RFU, Avg 37° C. (fluorescence of supernatant after 144 hours) of 2010 RFU. Moreover, in series [2], the “cleavage of insoluble collagen (7.5% SDS polyacrylamide gel, Coomassie Blue)” value is “after 24 hours incubation at 25 °C or 37° C., hMMP-1 partially cleaved the α1(I) and α2(I) collagen chains into ¾ and ¼ length digestion products for all hMMP-1 proteins tested”. Moreover, in series [3], the RFU, 37° C. (fluorescence of supernatant after 144 hours, replicate 1) is 1270 RFU; the RFU, 37° C. (fluorescence of supernatant after 144 hours, replicate 2) was 1280 RFU; the RFU, Avg 37° C. (fluorescence of supernatant after 144 hours) was determined as 1270 RFU.

B3: hMMP-1 (purchased from R&D Systems, #901-MP), activated with AMPA (protein)
chain: FVLTEGNPRWEQTHLTYRIENYTPDLPRADVDHAIEKAFQLWSNVTPLTFTKVSEGQADIMISFVRGDHRDNSPFDGPGGNLAHAFQPGPGIGGDAHFDEDERWTNNFREYNLHRVAAHELGHSLGLSHSTDIGALMYPSYTFSGDVQLAQDDIDGIQAIYGRSQNPVQPIGPQTPKACDSKLTFDAITTIRGEVMFFKDRFYMRTNPFYPEVELNFISVFWPQLPNGLEAAYEFADRDEVRFFKGNKYWAVQGQNVLHGYPKDIYSSFGFPRTVKHIDAALSEENTGKTYFFVANKYWRYDEYKRSMDPGYPKMIAHDFPGIGHKVDAVFMKDGFFYFFHGTRQYKFDPKTKRILTLQKANSWFNCRKN
In the case of B3, in series [1], the RFU, 37° C. (fluorescence of supernatant after 144 hours, replicate 1) turned out to be 3490 RFU; the RFU, 37° C. (fluorescence of supernatant after 144 hours, replicate 2) amounted to 2980 RFU; the RFU, Avg 37° C. (fluorescence of supernatant after 144 hours) amounted to 3240 RFU. Besides, the “cleavage of insoluble collagen (7.5% SDS polyacrylamide gel, Coomassie Blue)” value in series [2] was “after 24 hours incubation at 25 °C or 37° C., hMMP-1 partially cleaved the α1(I) and α2(I) collagen chains into ¾ and ¼ length digestion products for all hMMP-1 proteins tested”. In series [3], this protein had an RFU, 37° C. (fluorescence of supernatant after 144 hours, replicate 1) of 1160 RFU; an RFU, 37° C. (fluorescence of supernatant after 144 hours, replicate 2) of 1140 RFU; an RFU, Avg 37° C. (fluorescence of supernatant after 144 hours) of 1150 RFU.

B4: cathepsin S (R&D systems, activated) (protein)
chain: LPDSVDWREKGCVTEVKYQGSCGACWAFSAVGALEAQLKLKTGKLVSLSAQNLVDCSTEKYGNKGCNGGFMTTAFQYIIDNKGIDSDASYPYKAMDQKCQYDSKYRAATCSKYTELPYGREDVLKEAVANKGPVSVGVDARHPSFFLYRSGVYYEPSCTQNVNHGVLVVGYGDLNGKEYWLVKNSWGHNFGEEGYIRMARNKGNHCGIASFPSYPEI
With B4, the “degradation of soluble rat tail collagen Type I (1 hour at 37° C., SDS-Page gels, Coomassie Blue staining)” value in series [4] is “Cathepsins B, D and S showed some slight degradation of rat collagen at the manufacture specified pH and no degradation of rat collagen at pH 8.0”.
